Earlier results in US9056141B2, “Thiol-ene click chemistry for drug conjugates” (priority 2012, dated 2015).

Settings: patients receiving Adcetris treatment

Which “patients in clinical trials experiencing serious adverse events” value does the source give for brentuximab vedotin [Adcetris] here?
The value was 31%.

And the “patients discontinuing the treatment due to adverse events” value (clinical trials)?
The value was 21%.
